Changes are numbered by the printed parent chain. “And” between values parts separate entries of the source, which are not always exact repeats. Equal values may be shown once.
B1: Fab (Heavy)-Knob+Fab (Light)-Hole-CEA (208) (bispecific antibody, human IgG4 S228P, kappa, F234A L235A)
heavy: EVKLLESGGGLVQPKGSLKLSCAASGFTFNTYAMNWVRQAPGKGLEWVARIRSKYNNYATYYADSVKDRFTISRDDSQSILYLQMNNLKTEDTAMYYCVRHGNFGNSYVSWFAYWGQGTLVTVSSASTKGPSVFPLAPCSRSTSESTAALGCLVKDYFPEPVTVSWNSGALTSGVHTFPAVLQSSGLYSLSSVVTVPSSSLGTKTYTCNVDHKPSNTKVDKRVESKYGPPCPPCPAPEAAGGPSVFLFPPKPKDTLMISRTPEVTCVVVDVSQEDPEVQFNWYVDGVEVHNAKTKPREEQFNSTYRVVSVLTVLHQDWLNGKEYKCKVSNKGLPSSIEKTISKAKGQPREPQVYTLPPCQEEMTKNQVSLWCLVKGFYPSDIAVEWESNGQPENNYKTTPPVLDSDGSFFLYSRLTVDKSRWQEGNVFSCSVMHEALHNHYTQKSLSLSL
chain: QAVVTQESALTTSPGETVTLTCRSSTGAVTTSNYANWVQEKPDHLFTGLIGGTNKRAPGVPARFSGSLIGDKAALTITGAQTEDEAIYFCALWYSNLWVFGGGTKVEIKRTVAAPSVFIFPPSDEQLKSGTASVVCLLNNFYPREAKVQWKVDNALQSGNSQESVTEQDSKDSTYSLSSTLTLSKADYEKHKVYACEVTHQGLSSPVTKSFNRGECESKYGPPCPPCPAPEAAGGPSVFLFPPKPKDTLMISRTPEVTCVVVDVSQEDPEVQFNWYVDGVEVHNAKTKPREEQFNSTYRVVSVLTVLHQDWLNGKEYKCKVSNKGLPSSIEKTISKAKGQPREPQVCTLPPSQEEMTKNQVSLSCAVKGFYPSDIAVEWESNGQPENNYKTTPPVLDSDGSFFLVSRLTVDKSRWQEGNVFSCSVMHEALHNRFTQKSLSLSLGGGGSGGGGSEVQLVESGGGFVQAGESLTLSCTSSTLTFTPYRMAWYRQAPGKQRDLVADISSGDGRTTNYADFAKGRFTISRDNIKNTVFLRMTNLKPEDTAVYYCNTFVSFVGIARSWGQGTQVTVSS
notes: Two-chain format; human IgG4 knob-into-hole Fc
B2: Fab (Light)-Knob-CEA+Fab (Heavy)-Hole (209) (bispecific antibody, human IgG4 S228P, kappa, F234A L235A)
chain: B1 chain with C347Y, S352C, S364W, A366L, V405Y, R433H, F434Y
heavy: B1 heavy with Y354C, C359S, W371S, L373A, Y412V, H440R, Y441F
notes: as for B1
B3: CEA-Knob-Fab-+Hole (107) (bispecific antibody, human IgG4 S228P, kappa, F234A L235A)
heavy: EVQLVESGGGFVQAGESLTLSCTSSTLTFTPYRMAWYRQAPGKQRDLVADISSGDGRTTNYADFAKGRFTISRDNIKNTVFLRMTNLKPEDTAVYYCNTFVSFVGIARSWGQGTQVTVSSESKYGPPCPPCPAPEAAGGPSVFLFPPKPKDTLMISRTPEVTCVVVDVSQEDPEVQFNWYVDGVEVHNAKTKPREEQFNSTYRVVSVLTVLHQDWLNGKEYKCKVSNKGLPSSIEKTISKAKGQPREPQVYTLPPCQEEMTKNQVSLWCLVKGFYPSDIAVEWESNGQPENNYKTTPPVLDSDGSFFLYSRLTVDKSRWQEGNVFSCSVMHEALHNHYTQKSLSLSLGGGGSGGGGEVKLLESGGGLVQPKGSLKLSCAASGFTFNTYAMNWVRQAPGKGLEWVARIRSKYNNYATYYADSVKDRFTISRDDSQSILYLQMNNLKTEDTAMYYCVRHGNFGNSYVSWFAYWGQGTLVTVSSASTKGPSVFPLAPCSRSTSESTAALGCLVKDYFPEPVTVSWNSGALTSGVHTFPAVLQSSGLYSLSSVVTVPSSSLGTKTYTCNVDHKPSNTKVDKRV
chain: ESKYGPPCPPCPAPEAAGGPSVFLFPPKPKDTLMISRTPEVTCVVVDVSQEDPEVQFNWYVDGVEVHNAKTKPREEQFNSTYRVVSVLTVLHQDWLNGKEYKCKVSNKGLPSSIEKTISKAKGQPREPQVCTLPPSQEEMTKNQVSLSCAVKGFYPSDIAVEWESNGQPENNYKTTPPVLDSDGSFFLVSRLTVDKSRWQEGNVFSCSVMHEALHNRFTQKSLSLSL
light: QAVVTQESALTTSPGETVTLTCRSSTGAVTTSNYANWVQEKPDHLFTGLIGGTNKRAPGVPARFSGSLIGDKAALTITGAQTEDEAIYFCALWYSNLWVFGGGTKVEIKRTVAAPSVFIFPPSDEQLKSGTASVVCLLNNFYPREAKVQWKVDNALQSGNSQESVTEQDSKDSTYSLSSTLTLSKADYEKHKVYACEVTHQGLSSPVTKSFNRGEC
notes: Anti-CD3 TA1 Fab + anti-CEA VHH C17 on human IgG4 knob-into-hole Fc
B4: Knob-Fab+CEA-Hole (108) (bispecific antibody, human IgG4 S228P, kappa, F234A L235A)
heavy: ESKYGPPCPPCPAPEAAGGPSVFLFPPKPKDTLMISRTPEVTCVVVDVSQEDPEVQFNWYVDGVEVHNAKTKPREEQFNSTYRVVSVLTVLHQDWLNGKEYKCKVSNKGLPSSIEKTISKAKGQPREPQVYTLPPCQEEMTKNQVSLWCLVKGFYPSDIAVEWESNGQPENNYKTTPPVLDSDGSFFLYSRLTVDKSRWQEGNVFSCSVMHEALHNHYTQKSLSLSLGGGGSGGGGSEVKLLESGGGLVQPKGSLKLSCAASGFTFNTYAMNWVRQAPGKGLEWVARIRSKYNNYATYYADSVKDRFTISRDDSQSILYLQMNNLKTEDTAMYYCVRHGNFGNSYVSWFAYWGQGTLVTVSSASTKGPSVFPLAPCSRSTSESTAALGCLVKDYFPEPVTVSWNSGALTSGVHTFPAVLQSSGLYSLSSVVTVPSSSLGTKTYTCNVDHKPSNTKVDKRV
chain: EVQLVESGGGFVQAGESLTLSCTSSTLTFTPYRMAWYRQAPGKQRDLVADISSGDGRTTNYADFAKGRFTISRDNIKNTVFLRMTNLKPEDTAVYYCNTFVSFVGIARSWGQGTQVTVSSESKYGPPCPPCPAPEAAGGPSVFLFPPKPKDTLMISRTPEVTCVVVDVSQEDPEVQFNWYVDGVEVHNAKTKPREEQFNSTYRVVSVLTVLHQDWLNGKEYKCKVSNKGLPSSIEKTISKAKGQPREPQVCTLPPSQEEMTKNQVSLSCAVKGFYPSDIAVEWESNGQPENNYKTTPPVLDSDGSFFLVSRLTVDKSRWQEGNVFSCSVMHEALHNRFTQKSLSLSL
light: B3 light
notes: as for B3

Molecular target: T1, human CD3ε/δ (ACRO systems, CDD-H52W1) (human, UniProt P07766 23-126; P04234 22-105)
T1 construct: Bought protein; also called human CD3ϵ/CD3δ; human CD3 epsilon/delta antigen
Test: BLI, antibody captured, antigen in solution;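 also: bispecific antibodies captured on AHIC biosensors to a 1.5 nm loading signal, in PBST with 0.02% detergent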
Procedure: The bispecific antibodies were diluted to 5 ag/ml, and 1.5 nm protein was coupled to the surface of the AHIC sensor chip through 0.02% PBST.

Kd	koff	kon	Binder
2.82 nM	0.000642 s⁻¹	228000 M⁻¹ s⁻¹	B1
2.01 nM	0.000338 s⁻¹	168000 M⁻¹ s⁻¹	B2
2.23 nM	0.000803 s⁻¹	360000 M⁻¹ s⁻¹	B3
1.79 nM	0.00047 s⁻¹	262000 M⁻¹ s⁻¹	B4

Molecular target: T2, human CD3 on Jurkat cells (human, UniProt P07766 23-207; P04234 22-171; P09693 23-182)
T2 construct: whole, on cells; CD3 complex as on Jurkat (Clone E6-1) cells; also called CD3 expressing cells (Jurkat)
Test: FACS, Jurkat cells;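 also: flow cytometric binding of bispecific antibodies to Jurkat T cells, threefold serial dilutions incubated half an hour in the cold, EC50 taken from the fitted binding curve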

EC50	Binder
0.917 µg/mL and 7.06 nM	B1
0.866 µg/mL and 6.66 nM	B2
2.8 µg/mL and 21.6 nM	B3
5.53 µg/mL and 42.5 nM	B4
